Experimental data: publication doi:10.1101/2021.08.17.456705 (bioRxiv, 2021)

Biological target: the molecule itself
Experiment: SEC + native gel or EMSA

Protein	stoichiometry N
Cu, Zn superoxide dismutase 1 (SOD1) F20L-H46Q, de-metallated (enzyme) not shown	3
Cu, Zn superoxide dismutase 1 (SOD1) H46Q-G108H, de-metallated (enzyme) not shown	3
